Results from patent CN114560932A (MILITARY MEDICINE RES INSTITUTE OF CHINESE PEOPLE …, dated 2022).

Assays:
鼠疫菌F1重组蛋白 = 鼠疫菌F1重组蛋白 (Yersinia pestis, UniProt P26948 22-170)
鼠疫杆菌V重组蛋白 = 鼠疫杆菌V重组蛋白 (Yersinia pestis, UniProt P0C7U7 1-326); assay: ELISA, antigen coated at 2 μg/mL, mhS1 at 20 μg/mL, goat anti-human IgG-HRP
Sequence of 鼠疫杆菌V重组蛋白 (P0C7U7 whole entry): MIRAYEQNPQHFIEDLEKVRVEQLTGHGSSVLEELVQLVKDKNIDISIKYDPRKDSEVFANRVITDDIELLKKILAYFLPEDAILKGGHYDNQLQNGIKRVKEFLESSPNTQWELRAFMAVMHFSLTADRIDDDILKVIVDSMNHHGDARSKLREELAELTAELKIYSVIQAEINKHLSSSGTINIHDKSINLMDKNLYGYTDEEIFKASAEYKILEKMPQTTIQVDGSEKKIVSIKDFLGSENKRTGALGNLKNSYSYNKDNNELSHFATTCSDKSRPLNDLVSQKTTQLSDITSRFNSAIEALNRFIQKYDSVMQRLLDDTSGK

Sequence of 鼠疫菌F1重组蛋白 (P26948 22-170 limits assumed): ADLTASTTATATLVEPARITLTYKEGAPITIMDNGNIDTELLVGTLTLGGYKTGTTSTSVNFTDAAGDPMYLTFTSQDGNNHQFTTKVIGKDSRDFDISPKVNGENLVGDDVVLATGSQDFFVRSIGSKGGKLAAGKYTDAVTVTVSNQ

B1: 人鼠嵌合全抗体mhS1 (antibody, V domains shown)
VH: QVQLKESGAELVKPGASVKLSCTASGFNIKDTYIHWMKQRPEQGLEWIGRIDPANGHSIYDPKFQGKATITADASSNAAYLQLSSLTSEDTAVYYCARSYGYEKRYAMDYWGQGTSVTVSS
VL: DIVMTQTTSSLSASLGDRVTISCSASQGISNYLNWYQQKPDGTVKVLIYYTSTLHSGVPSRFSGSGSGTDYSLTISNLEPEDIATYYCQQYSKLPWTFGGGTKLEMKR
EC50 (鼠疫菌F1重组蛋白): 11.4 pM | binding result (鼠疫杆菌V重组蛋白): no binding (tested: 20μg/mL)
